System: P407-induced hyperlipidemia mice
Assay: Effect of Repatha on serum TC and LDL-C in P407-induced hyperlipidemia mice (model validation)
Format: in vivo, mouse
Protocol: Model preparation and validation: Normal ICR mice were fasted overnight with water ad libitum. The poloxamer 407 (P407, 500 mg/kg) was intraperitoneally injected on the next day. […] The clinical drug Repatha was injected subcutaneously at a dose of 40 mg/kg for 24 hours, followed by intraperitoneal injection of P407. The serum TC and LDL-C levels were measured 24 hours after injection of P407 (Table 25).

[1] = serum, Repatha 40 mg/kg subcutaneous, 24 hours after P407 injection

B1: Repatha: the clinical (marketed) drug Repatha, positive control in the P407 hyperlipidemia model (antibody, chains of the INN, looked up, V domains shown)
VH: EVQLVQSGAEVKKPGASVKVSCKASGYTLTSYGISWVRQAPGQGLEWMGWVSFYNGNTNYAQKLQGRGTMTTDPSTSTAYMELRSLRSDDTAVYYCARGYGMDVWGQGTTVTVSS
VL: ESALTQPASVSGSPGQSITISCTGTSSDVGGYNSVSWYQQHPGKAPKLMIYEVSNRPSGVSNRFSGSKSGNTASLTISGLQAEDEADYYCNSYTSTSMVFGGGTKLTVL
B1 was tested, and the “serum TC and LDL-C levels (in words)” value (40 mg/kg s.c., P407 500 mg/kg i.p., ICR mice) was “significantly reduced the serum TC and LDL-C levels”, the LDL-C [1] was 0.364 ± 0.097 mmol/L and the TC [1] was 190.0 ± 36.6 mg/dL.
